Source: article PMC5750076

Biological target: mTOR^ΔN-mLST8 complex (human) (UniProt P42345)

KM of S6K1^367–404 phosphorylation by mTOR^ΔN-mLST8: 430 µM
Substance: S6K1^367–404 wild type (from UniProt P23443-2 367-404) (peptide)
